From patent US20060292657A1, “Phex substrates and methods using same” (priority 2003, published 2006)
Marks after values point to notes of the source that are not given here.

Experiments:
Test in all cases: Kinetic parameters for hydrolysis of internally quenched fluorogenic peptides by secPHEX
Assay type in all cases: biochemical, human
[1] = substrate: Nc1ccccc1C(=O)NCC(=O)N[C@@H](Cc1ccccc1)C(=O)N[C@@H](CO)C(=O)N[C@@H](CCC(=O)O)C(=O)N[C@@H](Cc1ccc(O)cc1)C(=O)N[C@@H](CCCCNc1ccc([N+](=O)[O-])cc1[N+](=O)[O-])C(=O)O; conditions: other: 37° C., 10 mM Bis-Tris buffer pH 5.5, 150 mM NaCl, [S]<<Km
Experimental: (§1) The human recombinant secPHEX was obtained following the procedure previously described (17, WO 00/50580). Purified secPHEX concentration was determined using the Bradford method (DC protein assay kit; Bio-Rad, Mississauga, ON, Canada). Membrane-bound recombinant human PHEX was expressed in LLC-PK1 cells (17, (WO 00/50580)) and membranes were prepared essentially as described by Guo et al. (34). Briefly, transfected cells resuspended in lysis buffer (150 mM NaCl, 20 mM Tris.HCl, pH 7.6) were disrupted by sonication. Cell debris were removed by centrifugation at 300 g for 15 min at 4 °C. Membranes were collected by centrifugation at 30,000 g for 50 min and solubilized for 2h with 1% n-dodecyl-β-D-maltoside in lysis buffer. Insoluble material was pelleted by centrifugation at 10,000 g for 15 min and protein concentrations of the supernatant determined using the Bradford method described above. PHEX amounts were evaluated by immunoblotting as described previously (17). NEP expression and purification were performed as described previously (36).
(§2) The hydrolysis of the IQFPs, at 37° C., in 10 mM Bit-Tris buffer pH 5.5 (0.35 to 1.0 ml final volume) containing 150 mM NaCl, was continuously followed measuring the fluorescence at γem=420 nm and γex=320 nm in a Hitachi F-2000™ spectrofluorometer. The cuvefte containing the buffer and the substrate was placed in a thermostatically controlled cell compartment for 5 min before the addition of the enzyme and the increase in fluorescence with time was continuously recorded for 5-10 min. The enzyme concentration for initial rate determination was chosen at a level intended to hydrolyze less than 5% of the substrate present. The slope was converted into micromoles of substrate hydrolyzed per min based on a calibration curve obtained from complete hydrolysis of each peptide. The inner-filter effect was corrected using an empirical equation as previously described (43). The kinetic parameters Km and kcat were calculated by the non-linear regression data analysis Grafit program (42). The kcat/Km values were calculated as the ratio of these two determined parameters. The apparent second order rate constant kcat/Km (*kIt/Km) was determined under pseudo first-order conditions, where [S]<<Km. These determinations were performed in two different substrate concentrations and the errors were less than 5% for any obtained value.
(§3) To determine the position of cleavage in peptides of the IQFPs combinatorial libraries, the products resulting from hydrolysis by secPHEX were submitted to N-terminal amino acid sequencing in a PPSQ-23protein sequencer (Shimadzu Tokyo, Japan). The scissile bonds in the IQFPs secPHEX substrates derived from PTHrP107-139, FGF-23and MEPE were determined by amino acid sequencing and by MALDI-TOF™ mass spectrometry (TofSpec-E™, Micromass, Manchester, U.K.) after isolation of the fragments resulting from the hydrolysis by secPHEX by analytical HPLC.
(§4) The assays were performed at 37° C., in 10 mM Bis-Tris buffer pH 5.5, containing 150 mM NaCl. Measurements were made as described under the heading “Experimental Procedures” above. Cleavage sites are indicated as arrows (↓). The standard deviations of the kinetic constants were less than 5%.
(§5) The assays were performed at 37° C., in 10 mM Bis-Tris buffer pH 5.5, containing 150 mM NaCl. Measurements were made as described under the heading “Experimental Procedures” above. Cleavage sites are indicated by arrows (↓). The standard deviations of the kinetic constants were less than 5%.
(§6) The assays were. performed at 37° C., in 10 mM Bis-Tris buffer pH 5.5, containing 150 mM NaCl. Measurements were made as described under the heading “Experimental Procedures” above. Cleavage sites are indicated by arrows (↓). The standard deviations of the kinetic constants were less than 5%.
(§7) The assays were performed at 37° C., in 10 mM Bis-Tris buffer pH 5.5, containing 150 mM NaCl. Measurements were made as described under “Experimental Procedures”. […]

[2] = substrate: C[C@H](NC(=O)[C@H](CO)NC(=O)[C@H](CCC(N)=O)NC(=O)[C@@H](NC(=O)[C@H](Cc1c[nH]cn1)NC(=O)[C@H](CCCNC(=N)N)NC(=O)[C@H](CCCNC(=N)N)NC(=O)c1ccccc1N)[C@@H](C)O)C(=O)N[C@@H](CCC(=O)O)C(=O)N[C@@H](CC(=O)O)C(=O)N[C@@H](CC(=O)O)C(=O)N[C@@H](CO)C(=O)N[C@@H](CCC(=O)O)C(=O)N[C@@H](CCCNC(=N)N)C(=O)N[C@@H](CCC(N)=O)C(=O)NCCNc1ccc([N+](=O)[O-])cc1[N+](=O)[O-]; conditions: other: 37° C., 10 mM Bis-Tris buffer pH 5.5, 150 mM NaCl
Experimental: as §1, §2, §3, §4, §5, §6, §7

[3] = substrate: CC(C)C[C@H](NC(=O)c1ccccc1N)C(=O)N[C@@H](CCC(=O)O)C(=O)N[C@@H](CC(C)C)C(=O)N[C@@H](CC(=O)O)C(=O)N[C@@H](CO)C(=O)N[C@@H](CCCNC(=N)N)C(=O)N[C@@H](CCC(N)=O)C(=O)NCCNc1ccc([N+](=O)[O-])cc1[N+](=O)[O-]; conditions: other: 37° C., 10 mM Bis-Tris buffer pH 5.5, 150 mM NaCl
Experimental: as §1, §2, §3, §4, §5, §6, §7

[4] = substrate: C[C@H](NC(=O)[C@H](C)NC(=O)[C@H](CC(=O)O)NC(=O)[C@H](CO)NC(=O)[C@H](CO)NC(=O)CNC(=O)c1ccccc1N)C(=O)N[C@@H](CCC(=O)O)C(=O)N[C@@H](CCC(N)=O)C(=O)NCCNc1ccc([N+](=O)[O-])cc1[N+](=O)[O-]; conditions: other: 37° C., 10 mM Bis-Tris buffer pH 5.5, 150 mM NaCl
Experimental: as §1, §2, §3, §4, §5, §6, §7

B1: human recombinant secPHEX (Homo sapiens) (protein)
chain: SLQAKQEYCLKPECIEAAAAILSKVNLSVDPCDNFFRFACDGWISNNPIPEDMPSYGVYPWLRHNVDLKLKELLEKSISRRRDTEAIQKAKILYSSCMNEKAIEKADAKPLLHILRHSPFRWPVLESNIGPEGVWSERKFSLLQTLATFRGQYSNSVFIRLYVSPDDKASNEHILKLDQATLSLAVREDYLDNSTEAKSYRDALYKFMVDTAVLLGANSSRAEHDMKSVLRLEIKIAEIMIPHENRTSEAMYNKMNISELSAMIPQFDWLGYIKKVIDTRLYPHLKDISPSENVVVRVPQYFKDLFRILGSERKKTIANYLVWRMVYSRIPNLSRRFQYRWLEFSRVIQGTTTLLPQWDKCVNFIESALPYVVGKMFVDVYFQEDKKEMMEELVEGVRWAFIDMLEKENEWMDAGTKRKAKEKARAVLAKVGYPEFIMNDTHVNEDLKAIKFSEADYFGNVLQTRKYLAQSDFFWLRKAVPKTEWFTNPTTVNAFYSASTNQIRFPAGELQKPFFWGTEYPRSLSYGAIGVIVGHEFTHGFDNNGRKYDKNGNLDPWWSTESEEKFKEKTKCMINQYSNYYWKKAGLNVKGKRTLGENIADNGGLREAFRAYRKWINDRRQGLEEPLLPGITFTNNQLFFLSYAHVRCNSYRPEAAREQVQIGAHSPPQFRVNGAISNFEEFQKAFNCPPNSTMNRGMDSCRLW
notes: pure soluble form of PHEX (secPHEX); made in house
B1 was tested, and the kcat/Km [1] was 9.0* mM^−1 s^−1, the Km [2] was 1.7 µM and the kcat [2] was 0.15 s⁻¹. For the same protein, the kcat/Km [2] was 88200 M⁻¹ s⁻¹, the Km [3] was 0.9 µM and the kcat [3] was 0.05 s⁻¹. For the same protein, the kcat/Km [3] was 55500 M⁻¹ s⁻¹, the Km [4] was 2.4 µM and the kcat [4] was 0.3 s⁻¹. The kcat/Km [4] was 125000 M⁻¹ s⁻¹.
